Reference: paper PMC5932101 (EJNMMI Radiopharmacy and Chemistry, 2018)

Legend:
in vivo [1] = assay: in vivo; set-up: species or system mice; conditions: female, athymic Balb/c nude, mouse, iv, total radioactivity
Protocol: (§1) All animal experiments complied with the current laws of the Federal Republic of Germany and were conducted according to German Animal welfare guidelines. Normal female athymic Balb/c nude mice (17–20 g, 4–6 weeks old) were obtained from Janvier SAS (St. Berthevin Cedex, France). Mice were provided with food and water ad libitum. U-87 MG tumors were inoculated on the right shoulder by sub-cutaneous injection of 5×10^6 cells in a 100 μL cell suspension of a 1:1 v/v mixture of media with reconstituted basement membrane (GFR BD Matrigel™, Corning BV, Amsterdam, Holland).
For each compound, a total of five animals were injected with [^68Ga]3 (7–11 MBq) in 100 μL sterile filtered phosphate buffered saline via a tail vein. At 1 h p.i., animals were sacrificed by isoflurane anesthesia. Organs of interest were dissected, weighed and assayed for radioactivity in a gamma counter. The percent injected activity per gram (%IA g^− 1) for each tissue was calculated by comparison of the tissue counts to a standard sample prepared from the injectate.

in vivo [2] = assay: in vivo; set-up: species or system mice; conditions: female, athymic Balb/c nude, mouse, iv, total radioactivity; remark: listed apart in the source
Protocol: as §1
For PET imaging studies, mice (n = 3) were injected with 100 μL sterile filtered phosphate buffered saline formulations pH 7.4 of [^68Ga]3 (7–11 MBq) by intravenous tail-vein injection and anesthetized with isoflurane (2–4% in air) 5–10 min prior image acquisition. PET imaging was performed on a Focus 120 microPET scanner at 1 h after administration. Data were acquired 1 h post administration in list mode. Reconstruction was performed using unweighted OSEM2D. Image analysis was performed using AMIDE. Image counts per second per voxel (cps/voxel) were calibrated to activity concentrations (Bq mL^− 1) by measuring a 3.5 cm cylinder phantom filled with a known concentration of radioactivity.

[3] = cited from earlier work
From the text: The radiolabelled conjugate [^68Ga]3 is highly hydrophilic with a log Doct/PBS value of − 3.89 ± 0.02.

[4] = system: mice bearing αvß3-positive U-87 MG tumors; conditions: mouse, in vivo; cited from earlier work
Protocol: Table 1 Ex vivo biodistribution of [^68Ga]3 in mice bearing αvß3-positive U-87 MG tumors at 1 h p.i. along with blocking studies in comparison to [^68Ga]Ga-NODAGA-c(RGDfK) and [^68Ga]Ga-DOTA-c(RGDfK) (data taken from ref. Dumont et al. [2011]). Data are expressed as %IA g^− 1 and represent mean ± SD (n = 5) | column: [^68Ga]Ga-NODAGA-c(RGDfK) / 1 h; [^68Ga]Ga-DOTA-c(RGDfK) / 1 h || Biodistribution data for [^68Ga]3 are presented in Table 1. For comparison, equivalent data taken from the literature are also given for compounds [^68Ga]Ga-NODAGA-c(RGDfK) and [^68Ga]Ga-DOTA-c(RGDfK) (Dumont et al. [2011]). The primary difference between these three compounds is the change in chelator.

[5] = system: U-87 MG tumor bearing mice; conditions: mouse, in vivo; cited from earlier work
Protocol: In addition to the ex vivo biodistribution studies, the distribution profile of [^68Ga]3 was also assessed 1 h after administration by small-animal PET imaging. Corresponding transverse and coronal maximum intensity projections of [^68Ga]3 in αvß3 xenograft bearing mice along with blocking studies are given Fig. 2. The results of the biodistribution study were confirmed by PET imaging. The αvß3 positive U-87 MG tumors as well as the liver and the kidneys were clearly visible on the PET images. The tumor uptake of [^68Ga]3 was determined to 2.48 ± 0.14 %IA g^− 1. The differences in blood and ti ...

| Compound | tissue uptake at 1 h (in vivo [1]; Accumulation in all other organs (other than tumor, kidney, liver)) [%ID/g] | tissue to tissue ratio at 1 h (in vivo [1]; Tumor-to-blood ratio) | tissue to tissue ratio at 1 h (in vivo [1]; Tumor-to-kidney ratio) | tissue to tissue ratio at 1 h (in vivo [1]; Tumor-to-liver ratio) | tissue to tissue ratio at 1 h (in vivo [1]; Tumor-to-muscle ratio) | tissue to tissue ratio at 1 h (in vivo [2]) | log D [3] | Tumor-to-blood ratio [4] | Tumor-to-kidney ratio [4] | Tumor-to-liver ratio [4] | Tumor-to-muscle ratio [4] | Tumor-to-background ratio (PET) [5] |
| --- | --- | --- | --- | --- | --- | --- | --- | --- | --- | --- | --- | --- |
| Cn1ccnc1CN1CCN(CC(=O)NCCCC[C@@H]2NC(=O)[C@@H](Cc3ccccc3)NC(=O)[C@H](CC(=O)O)NC(=O)CNC(=O)[C@H](CCCNC(=N)N)NC2=O)CCN(Cc2nccn2C)CC1 [[^68Ga]3, [^68Ga]Ga-NODIA-Me-c(RGDfK), metal not drawn] | < 1 | 3.91 ± 0.43 | 1.27 ± 0.04 | 2.08 ± 0.18 | 11.7 ± 0.29 | 6.76 |  |  |  |  |  |  |
| [^68Ga]Ga-DOTA-c(RGDfK) (head to tail) |  |  |  |  |  |  | − 2.86 ± 0.01 | 9.24 ± 1.12 | 1.57 ± 0.14 | 2.25 ± 0.37 | 12.37 ± 1.81 | 3.28 |
| [^68Ga]Ga-NODAGA-c(RGDfK) (head to tail) |  |  |  |  |  |  | − 3.27 ± 0.01 | 27.67 ± 7.01 | 2.64 ± 0.31 | 2.75 ± 0.31 | 12.80 ± 5.25 | 11.97 |
